Assays:
[1] = molecular target: T1, human CD40 expressed on CHO cells (human, UniProt P25942 21-277); assay: FACS on CHO cells expressing human CD40 (MFI)
T1 construct: whole, on cells
Experimental: (§1) Anti-CD40/CD137 bi-specific antibodies were analyzed by FACS for their binding properties to human CD40 and/or human CD137 expressed on CHO cells. Briefly, cultured cells were harvested, counted and cell viability was evaluated using the Trypan Blue exclusion method. Viable cells were then adjusted to 2×10⁶ cells per mL in PBS containing 2% BSA. 100 μL of this cell suspension were further aliquoted per well into a V-bottom 96-well plate. […] After incubation for 2 hours at 4° C., cells were centrifuged (3 min, 1000×g), washed with 250 μL/well BSA-containing FACS Stain Buffer, resuspended and incubated for an additional 1 hour at 4° C. with 100 μL/well fluorochrome-conjugated anti-IgG antibody for detection of the bisepecific antibody. Cells were then washed with 250 μL/well BSA-containing FACS Stain Buffer, resuspended in 100 μL/well FACS Stain Buffer, acquired and analyzed using a FACS machine. Binding of the bispecific antibodies to human CD40 or human CD137 expressing CHO cells were evaluated and the mean fluorescence intensity is plotted in histograms or dot plots.

[2] = molecular target: T2, human PD-1 expressed on cells (human, UniProt Q15116 25-288); assay: flow cytometry (FACS), MFI, CHO cells expressing human PD-1
T2 construct: whole, on cells; also called human PD-1 over-expressed on the CHO cells; Jurkat/NFkB-Luci/PD-1 cells
Experimental: as §1, with “Exemplary anti-PD-1/CD137” for “Anti-CD40/CD137”, “PD-1” for “CD40”, “1000× g),” for “1000×g),”

[3] = molecular target: T3, human CD137 ECD protein (His tag) (human, UniProt Q07011 24-186); assay: bridging ELISA: human CD137 ECD (His tag) coated, antibody titrated, then human PD-1 ECD (mouse IgG2a Fc tag), HRP anti-mouse IgG2a Fc; A450-A620
T3 construct: extracellular domain; also called recombinant human CD137; not shown: His tag
Experimental: Exemplary anti-PD-1/CD137 bi-specific antibodies were analyzed by ELISA for their simultaneous binding to recombinant human PD-1 and human CD137. Briefly, human CD137 ECD protein (His tag) was diluted and coated onto an ELISA plate with a volume of 100 μL/well by incubation at 4° C. overnight. The next day, the plate was blocked with PBST-BSA buffer, then serially diluted samples of anti-PD-1/CD137 bi-specific antibodies were pipetted into appropriate wells at 50 μL/well, and the plate was incubated for 1 hour followed by washing. The extracellular domain (ECD) of human PD-1 protein (mouse IgG2a Fc tag) was added into the plate at 50 μL/well. After 1-hour incubation at room temperature, HRP-conjugated anti-Mouse IgG, Fc G2a specific antibody was added into the plate at 100 μL/well. The plate was incubated for 1 hour at room temperature followed by washing. TMB substrate solution was added at 100 μL/well and the color development was stopped by adding 100 uL/well Stop Solution (2N H₂SO₄). Absorbance at 450 nm and 620 nm was read by Tecan F200 Pro plate reader. GraphPad 7.0, “[Agonist] vs. response—Variable slope (four parameters)” was used to plot the binding data and calculate binding EC50 values.

[4] = molecular target: T4, human CD137 expressed on cells (human, UniProt Q07011 24-255); assay: flow cytometry (FACS), MFI, CHO cells expressing human CD137
T4 construct: whole, on cells; also called 4-1BB; TNFRSF9
Experimental: as §1, with “Exemplary anti-PD-1/CD137” for “Anti-CD40/CD137”, “PD-1” for “CD40”, “1000× g),” for “1000×g),”

T4 sequence (Q07011 24-255): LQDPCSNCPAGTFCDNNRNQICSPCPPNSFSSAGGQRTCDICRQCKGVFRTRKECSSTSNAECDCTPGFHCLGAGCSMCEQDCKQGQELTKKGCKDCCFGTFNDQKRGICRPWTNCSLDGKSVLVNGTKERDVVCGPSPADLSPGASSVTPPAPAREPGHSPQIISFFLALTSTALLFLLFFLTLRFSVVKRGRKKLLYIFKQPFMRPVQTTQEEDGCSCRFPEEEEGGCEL
T2 sequence (Q15116 25-288): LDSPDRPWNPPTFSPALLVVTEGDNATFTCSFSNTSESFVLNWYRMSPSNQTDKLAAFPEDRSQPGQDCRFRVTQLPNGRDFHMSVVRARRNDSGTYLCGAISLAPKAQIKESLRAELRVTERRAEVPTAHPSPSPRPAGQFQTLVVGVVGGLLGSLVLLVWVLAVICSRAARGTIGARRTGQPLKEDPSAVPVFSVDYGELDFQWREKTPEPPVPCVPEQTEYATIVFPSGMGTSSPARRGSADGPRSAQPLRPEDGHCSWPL
T1 sequence (P25942 21-277): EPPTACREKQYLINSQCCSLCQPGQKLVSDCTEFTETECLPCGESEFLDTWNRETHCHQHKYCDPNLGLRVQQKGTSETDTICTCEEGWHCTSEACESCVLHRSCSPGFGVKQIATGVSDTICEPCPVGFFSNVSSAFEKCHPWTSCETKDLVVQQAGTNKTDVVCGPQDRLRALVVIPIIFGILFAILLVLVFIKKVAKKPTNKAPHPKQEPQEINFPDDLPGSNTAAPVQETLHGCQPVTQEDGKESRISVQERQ

EC50 (read off the curve) [1] [mg/L] | EC50 (read off the curve) [2] [mg/L] | EC50 (read off the curve) [3] [mg/L] | EC50 (read off the curve) [4] [mg/L] | Binder
~0.09 | – | – | – | Ly253-G2 (antibody, human IgG2, kappa, V domains shown, also called anti-CD40 antibody) VH: not shown VL: DIQMTQSPSSVSASVGDRVTITCRASQGIYSWLAWYQQKPGKAPNLLIYTASTLQSGVPSRFSGSGSGTDFTLTISSLQPEDFATYYCQQANIFPLTFGGGTKVEIKR
– | ~0.2 | ~0.02 | – | Ly510 (bispecific antibody, human IgG2, kappa, Anti-PD-1/CD137: Ly516 heavy chain (other constant region than Ly456) fused to Ly1630 scFv (VL-VH); Ly516 light chain) heavy: QVTLKESGPALVKPTQTLTLTCTFSGFSLSTSGTCVSWIRQPPGKALEWLATICWEDSKGYNPSLKSRLTISKDTSKNQAVLTMTNMDPVDTATYYCARREDSGYFWFPYWGQGTLVTVSSASTKGPSVFPLAPCSRSTSESTAALGCLVKDYFPEPVTVSWNSGALTSGVHTFPAVLQSSGLYSLSSVVTVPSSNFGTQTYTCNVDHKPSNTKVDKTVERKCCVECPPCPAPPVAPSVFLFPPKPKDTLMISRTPEVTCVVVDVSHEDPEVQFNWYVDGVEVHNAKTKPREEQFNSTFRVVSVLTVVHQDWLNGKEYKCKVSNKGLPAPIEKTISKTKGQPREPQVYTLPPSREEMTKNQVSLTCLVKGFYPSDIAVEWESNGQPENNYKTTPPMLDSDGSFFLYSKLTVDKSRWQQGNVFSCSVMHEALHNHYTQKSLSLSPGGGGGSGGGGSGGGGSGGGGSDIQMTQSPSSLSASVGDRVTITCRASQDIRSNLNWYQQKPGGAVKLLIYYTSRLHSGVPSRFSGSGSGTDYTLTISSLQPEDFATYFCQQSEKLPRTFGGGTKVEIRGGGGSGGGGSGGGGSGGGGSQVQLVQSGAEVKKPGASVKVSCKASGYTFAGFEMHWVRQAPGQGLEWMGAIDPKTGGTDYNQKFKDRVTMTRDTSISTAYMELSRLRSDDTAVYYCARDLGYFDVWGQGTLVTVSS light: NIQMTQSPSSLSASVGDRVTITCKAGQNVNNYLAWYQQKPGKAPKVLIFNANSLQTGVPSRFSGSGSGTDFTLTISSLQPEDFATYYCQQYNSWPTFGGGTKVEIKRTVAAPSVFIFPPSDEQLKSGTASVVCLLNNFYPREAKVQWKVDNALQSGNSQESVTEQDSKDSTYSLSSTLTLSKADYEKHKVYACEVTHQGLSSPVTKSFNRGEC
– | ~0.2 | – | ~0.5 | Ly514 (bispecific antibody, human IgG2, kappa, Three-chain format: Ly516 heavy chain fused to Ly1630 light chain; Ly516 light chain; Ly1630 VH-CH1) heavy: QVTLKESGPALVKPTQTLTLTCTFSGFSLSTSGTCVSWIRQPPGKALEWLATICWEDSKGYNPSLKSRLTISKDTSKNQAVLTMTNMDPVDTATYYCARREDSGYFWFPYWGQGTLVTVSSASTKGPSVFPLAPCSRSTSESTAALGCLVKDYFPEPVTVSWNSGALTSGVHTFPAVLQSSGLYSLSSVVTVPSSNFGTQTYTCNVDHKPSNTKVDKTVERKCCVECPPCPAPPVAPSVFLFPPKPKDTLMISRTPEVTCVVVDVSHEDPEVQFNWYVDGVEVHNAKTKPREEQFNSTFRVVSVLTVVHQDWLNGKEYKCKVSNKGLPAPIEKTISKTKGQPREPQVYTLPPSREEMTKNQVSLTCLVKGFYPSDIAVEWESNGQPENNYKTTPPMLDSDGSFFLYSKLTVDKSRWQQGNVFSCSVMHEALHNHYTQKSLSLSPGGGGGSGGGGSGGGGSGGGGSDIQMTQSPSSLSASVGDRVTITCRASQDIRSNLNWYQQKPGGAVKLLIYYTSRLHSGVPSRFSGSGSGTDYTLTISSLQPEDFATYFCQQSEKLPRTFGGGTKVEIRRTVAAPSVFIFPPSDEQLKSGTASVVCLLNNFYPREAKVQWKVDNALQSGNSQESVTEQDSKDSTYSLSSTLTLSKADYEKHKVYACEVTHQGLSSPVTKSFNRGEC light: NIQMTQSPSSLSASVGDRVTITCKAGQNVNNYLAWYQQKPGKAPKVLIFNANSLQTGVPSRFSGSGSGTDFTLTISSLQPEDFATYYCQQYNSWPTFGGGTKVEIKRTVAAPSVFIFPPSDEQLKSGTASVVCLLNNFYPREAKVQWKVDNALQSGNSQESVTEQDSKDSTYSLSSTLTLSKADYEKHKVYACEVTHQGLSSPVTKSFNRGEC QVQLVQSGAEVKKPGASVKVSCKASGYTFAGFEMHWVRQAPGQGLEWMGAIDPKTGGTDYNQKFKDRVTMTRDTSISTAYMELSRLRSDDTAVYYCARDLGYFDVWGQGTLVTVSSASTKGPSVFPLAPSSKSTSGGTAALGCLVKDYFPEPVTVSWNSGALTSGVHTFPAVLQSSGLYSLSSVVTVPSSSLGTQTYICNVNHKPSNTKVDKKVEPKSCDK
– | – | – | ~0.1 | Ly461 (bispecific antibody, human IgG1, kappa, Three-chain format: Ly1630 heavy chain fused to Ly516 light chain; Ly1630 light chain; Ly516 VH-CH1) heavy: QVQLVQSGAEVKKPGASVKVSCKASGYTFAGFEMHWVRQAPGQGLEWMGAIDPKTGGTDYNQKFKDRVTMTRDTSISTAYMELSRLRSDDTAVYYCARDLGYFDVWGQGTLVTVSSASTKGPSVFPLAPSSKSTSGGTAALGCLVKDYFPEPVTVSWNSGALTSGVHTFPAVLQSSGLYSLSSVVTVPSSSLGTQTYICNVNHKPSNTKVDKKVEPKSCDKTHTCPPCPAPELLGPSVFLFPPKPKDTLMISRTPEVTCVVVDVSHEDPEVKFNWYVDGVEVHNAKTKPREEQYNSTYRVVSVLTVLHQDWLNGKEYKCKVSNKALPAPIEKTISKAKGQPREPQVYTLPPSREEMTKNQVSLTCLVKGFYPSDIAVEWESNGQPENNYKTTPPVLDSDGSFFLYSKLTVDKSRWQQGNVFSCSVMHEALHNHYTQKSLSLSPGGGGGSGGGGSGGGGSGGGGSNIQMTQSPSSLSASVGDRVTITCKAGQNVNNYLAWYQQKPGKAPKVLIFNANSLQTGVPSRFSGSGSGTDFTLTISSLQPEDFATYYCQQYNSWPTFGGGTKVEIKRTVAAPSVFIFPPSDEQLKSGTASVVCLLNNFYPREAKVQWKVDNALQSGNSQESVTEQDSKDSTYSLSSTLTLSKADYEKHKVYACEVTHQGLSSPVTKSFNRGEC light: DIQMTQSPSSLSASVGDRVTITCRASQDIRSNLNWYQQKPGGAVKLLIYYTSRLHSGVPSRFSGSGSGTDYTLTISSLQPEDFATYFCQQSEKLPRTFGGGTKVEIRRTVAAPSVFIFPPSDEQLKSGTASVVCLLNNFYPREAKVQWKVDNALQSGNSQESVTEQDSKDSTYSLSSTLTLSKADYEKHKVYACEVTHQGLSSPVTKSFNRGEC QVTLKESGPALVKPTQTLTLTCTFSGFSLSTSGTCVSWIRQPPGKALEWLATICWEDSKGYNPSLKSRLTISKDTSKNQAVLTMTNMDPVDTATYYCARREDSGYFWFPYWGQGTLVTVSSASTKGPSVFPLAPSSKSTSGGTAALGCLVKDYFPEPVTVSWNSGALTSGVHTFPAVLQSSGLYSLSSVVTVPSSSLGTQTYICNVNHKPSNTKVDKKVEPKSCDK
– | – | – | ~0.1 | Ly515 (bispecific antibody, human IgG2, kappa, Three-chain format: Ly1630 heavy chain fused to Ly516 light chain; Ly1630 light chain; Ly516 VH-CH1) heavy: QVQLVQSGAEVKKPGASVKVSCKASGYTFAGFEMHWVRQAPGQGLEWMGAIDPKTGGTDYNQKFKDRVTMTRDTSISTAYMELSRLRSDDTAVYYCARDLGYFDVWGQGTLVTVSSASTKGPSVFPLAPCSRSTSESTAALGCLVKDYFPEPVTVSWNSGALTSGVHTFPAVLQSSGLYSLSSVVTVPSSNFGTQTYTCNVDHKPSNTKVDKTVERKCCVECPPCPAPPVAPSVFLFPPKPKDTLMISRTPEVTCVVVDVSHEDPEVQFNWYVDGVEVHNAKTKPREEQFNSTFRVVSVLTVVHQDWLNGKEYKCKVSNKGLPAPIEKTISKTKGQPREPQVYTLPPSREEMTKNQVSLTCLVKGFYPSDIAVEWESNGQPENNYKTTPPMLDSDGSFFLYSKLTVDKSRWQQGNVFSCSVMHEALHNHYTQKSLSLSPGGGGGSGGGGSGGGGSGGGGSNIQMTQSPSSLSASVGDRVTITCKAGQNVNNYLAWYQQKPGKAPKVLIFNANSLQTGVPSRFSGSGSGTDFTLTISSLQPEDFATYYCQQYNSWPTFGGGTKVEIKRTVAAPSVFIFPPSDEQLKSGTASVVCLLNNFYPREAKVQWKVDNALQSGNSQESVTEQDSKDSTYSLSSTLTLSKADYEKHKVYACEVTHQGLSSPVTKSFNRGEC light: DIQMTQSPSSLSASVGDRVTITCRASQDIRSNLNWYQQKPGGAVKLLIYYTSRLHSGVPSRFSGSGSGTDYTLTISSLQPEDFATYFCQQSEKLPRTFGGGTKVEIRRTVAAPSVFIFPPSDEQLKSGTASVVCLLNNFYPREAKVQWKVDNALQSGNSQESVTEQDSKDSTYSLSSTLTLSKADYEKHKVYACEVTHQGLSSPVTKSFNRGEC QVTLKESGPALVKPTQTLTLTCTFSGFSLSTSGTCVSWIRQPPGKALEWLATICWEDSKGYNPSLKSRLTISKDTSKNQAVLTMTNMDPVDTATYYCARREDSGYFWFPYWGQGTLVTVSSASTKGPSVFPLAPSSKSTSGGTAALGCLVKDYFPEPVTVSWNSGALTSGVHTFPAVLQSSGLYSLSSVVTVPSSSLGTQTYICNVNHKPSNTKVDKKVEPKSCDK

— patent publication US20230406950A1 (LYVGEN BIOPHARMA, published 2023)
